Measurements taken from the DeepSol protein solubility set.

experiment: soluble on expression in E. coli; label from the status in PepcDB or PDB records

| Sequence | soluble on expression in E. coli |
| --- | --- |
| MGSDKIHHHHHHMTNLNEKQLITEIVGLARSQGLTVHSENAQLNETGMDFQVVFAKDDTGMPWVLRKPRRSDVVERASAEGITLAFLRANLTADVPDWRIHTPELIAYPMLKGTPAAGIDLEQKQYVWNMDHQPPSDDFVRTLADILAELHGTDQISAGQSGIEVIRPEDFRQMTADSMVDVKNKLGVSTTLWERWQKWVDDDAYWPGFSSLIHGDLHPPHILIDQNGRVTGLLDWTEAKVADPAKDFVLYQTIFGEKETARLLEYYDQAGGRIWAKMQEHISEMQAAYPVEIAKLALQTQQEEHINMALEALGVTSD | not soluble |
| MGSDKIHHHHHHMTPAQLKDELIAYSKTIGIDKIGFASADPFLTLKERLQTQQALGYQSGFEEPDIDKRVYPEKILPKARSIISIALAYPSKMKNPPKSKKGERRGVFCRASWGKDYHDILRDRLKKLEDFLLERVPDMKVLSMVDTGALSDRAVAERAGIGWSGKNCGVITPEFGSYVYLGDLVTTIPFPPDIPLTDQCGTCNKCVDACPTGALIQGGQLDSQKCIAFLTQTKGFLPEKYRKKLGNRLYGCDTCQQVCPANKGKNFHFHEEMEPDPEIAKPKLIPLLTMSNREFKEKFGHVSGSWRGKKPIQRNAILALAHFKEEAALPILADLLRQDPRPVIRGTAGWALGKIGGPEVETWLKDALKREKDEDVRAEISRGLEILAYGDSGNGKETEDSIR | not soluble |
| MGSDKIHHHHHHMTQFDVLTIGNAIVDIISRCEDQFLEENGIVKGAMNLIDAERATRLYSLMGPAIEASGGSAGNTAAGIASFGGKAAYFGKVAEDELGEIFAHDIRAQGVHYQTMAKGQHPPTARCMIFVTEDGERSMNTYLGACVEFGPEDVEPEVVKQAKVTYFEGYLWDPPRAKQAIVDCARIAHEHGREMSMTLSDSFCVHRYRAEFLDLMRSGTVDIVFANRQEALALYETEDFDAALDQIAKDCKLAAVTMSEEGAMIIRGSERIHVPATTIAELVDTTGAGDLFASGFLYGYTQGRTLEECGKLGCLAAGLVIQQMGPRPLASLQEAAAEAGLI | not soluble |
| MGSDKIHHHHHHMTQFWRDPTLPFVESRRATDSRACYRPHSHPTLSIGVVDRGQSQFQCQRRREWLTPGCLVSVPAGVVHDCNPLPDQPWSYQMLYLEPAWVSEVLDEASAETDAAPTLPSTVFIARDVAPYQAFCRLNALLFSSAPRADKEAGLIEFLGSRLWCHGDAMAVHWPNSSDLDDLQRHLLECLERPPSLEVLARDHGLSRYQVIRLFRRETGLTPHAWLLDRRIQQARRRLCQGVELAELAQELGFADQGHFQRAFKARVAATPGRYRST | not soluble |
| MGSDKIHHHHHHMTQLSNKTKDSCNWDSIVIGSGLGGLVTASQLASKGAKVLVLEQYKIPGGSGGSFKRKGFTFDVGASMIFGFGNKGYTNLLTRALKDVGQKCETIPDPTQLAYHLPNQLEISVDRDYQKFITKLINLFPHEEKGIKHFYETCWDVFNCLDSMPLLSIEDPAYLMKVFFKSPLSCLGLARWLPVNAGDVAMRYIKDPDLLRFIDIECFCWSVMPANLTPMINAGMVFSDRHYGGINYPKGGVGVIAEKLVKGIKNLGGEIRYKSRVKKIIFEKGNAIGVSLENDEEIFSKTVVSNATRWDTFGGQGIKSPLVATENKPTSEKKWENRYIPSPSFLSLHLGVNVDSIPANTHCHHLLLDKWEEMDKEQGVTFVSIPTLLDPTLAPSGSHIVHAFTPSSIDNWDGLSNKEYLAKKKEDGDKLISKLERLFPNLSQNILHKEIGSPRTHKRFLARNKGSYGPIPSMRLPGLLPMPFNTTKINGLYCVGDSCFPGQGLNAVAFSGYACAHKIGTKLGMNKWELPE | not soluble |
| MGSDKIHHHHHHMTQSSLDPATVELTADQQQAAEAFSSWLDDANHGNPFVLSGFAGSGKTFLSMRLLRQVEDAGLCWTVVAPTHKAVGVLRQALDLEGLRPTWYPSTIHRLLRLKLKRQGDLELCESTEQTAQSLEQLGLVLIDESSMIDSTLLGLALQCAHPFRTRLVFVGDPAQLPPIGEAQSPVFSMHRACTATLQQVVRHQGPVLRLASRLRDGSLPCQSPPCFPLIEDELGRVGCMDQNNWLKRAQAALQSAAIQDNPDAARILCYTNRSLEQLVPHARRAIHGDMADQLPVLPGEVLIARKAVMAPASRSGAETGEEPDMVLGSNREVVVRDVTPERCDLAEFGLEGQSDWSVPVVDTLTAKVRAGELDLELRLQPPVGSEGRRLLDTTLQRLRVEAKAAGKSDGRSLWRRFFLLRDAFASLGPAAVLTVHRSQGSSFGEVFVAGDVFWPQDLSLRRQLVYVAVSRARTGVWLVGKTGAAAQSRWLDQLRSQSSDR | not soluble |
